The data set can be described thus: label from the status in PepcDB records.

As for “MAWNKQVALVFLPSDSGVDGARSLYGDTEPPGLRRWLDSGVRNLIKRTQFAIPPLALMILASIEVPGVEQTLCDLRFEEFPFDRQWDLVGISVQTGMASKAFELADRLRSRGVKVVLGGPHVTMFPDSCRAHADCLVHGEADDLWRDVLADLVTDSLKAEYRPDAPPDLQLHRPVSRASLKKNRYFTTNLVQTGRGCPYQCDFCNVHVLNGRVLRQRKIDHIVDEVRRFSEEDKRIFFFVDDSINGDPLFARELFKHLIPLNITWFGQATTALGQQPELLDTFARSGCRALLVGIESIEPSSRIAHKKTQNRTDELAGNIRAIRKSGISLYGSFIYGLDGDTLQTPQAILDFIADTRLDVPGINTLRPIPGTKVFDRLREEGRLLFDPEDITSFRYTFGQEMLYRPKNIPLPEFIESYSELTRKVFNIGNAIRRGLEAPGINAAVLFFNLFYTHLYRLSRNDLRKQLETLGSA”, the protein production result is on record as “failed”.

As for “MAYDDIVSSMVLELRRGTLVMLVLSQLREPAYGYALVKSLADHGIPIEANTLYPLMRRLESQGLLASEWDNGGSKPRKYYRTTDEGLRVLREVEAQWHVLCDGVGKLLETNGEDREHAER”, the protein production entry is recorded as “not failed”.

As to “MAYDGLFTKKMVESLQFLTTGRVHKINQPDNDTILMVVRQNRQNHQLLLSIHPNFSRLQLTTKKYDNPFNPPMFARVFRKHLEGGIIESIKQIGNDRRIEIDIKSKDEIGDTIYRTVILEIMGKHSNLILVDENRKIIEGFKHLTPNTNHYRTVMPGFNYEAPPTQHKINPYDITGAEVLKYIDFNAGNIAKQLLNQFEGFSPLITNEIVSRRQFMTSSTLPEAFDEVMAETKLPPTPIFHKNHETGKEDFYFIKLNQFNDDTVTYDSLNDLLDRFYDARGERERVKQ”, the protein production entry is on record as “not failed”.

With “MAYDIERYLDIRGAGDPTYGPTGELAFTLGTTGTAQVWALGAPGAWPTQLTFHDERVQWASFSPTREELAYGMDTGGDEFTQLHRVSGDGSEDVQLTAFPDAKHDWGGWSHDGDRIAYTANRRDASRFDVYVQGRDEAGANADCVRVGDTFDLPSVVGWSPSDDRLLVVDTHSNFDQDVAVLDVDTGEITRATAGLDADTRFSWVAWAPDGGGVYVTTDHDADTRYLGLLDPETGAISRVADGGDWPIEAVVTAHDAGRLAYVRNRDGYSELTIADAAGTTLTEQPTPELPDGVIRGLSWGPDGDTLAVVVSAATENPNVFVVDVATGAATQWTNAATAGIPKSTFREPELVRYETFDGREIPALFTRPDGDGPHPVIVDFHGGPEGQRRPSFLSLRQYFVDNGYAVFEPNVRGSSGYGATYMNLDNVRNRMDAVADGKAGVEWLTARTDIDADRVVAYGGSYGGFMVLASLTEYPELWAAGVDIVGIANFVTFLENTGDWRREHRESEYGSLDADREFLESISPTNNADRIRAPLLVLHGANDPRVPVGEAERIVEQASAHVPVEKHVFDDEGHGFSKRANKQAAYRAVVDFLDDHALEHHHHHH”, the protein production entry is on record as “failed”.

For “MAYFYLAEAGDWSFRTVWHDRFFTVLKHHPARTEKVEQADYIFLDADFALETNWPYYGSQRKAILKGDRFPTDEEILAFLFDHPVSGYGKPLVLINMNPLAQWPAIAQVLPDVVVVSHCHTLGNYRVGIDVSFPPMPLLDQHCYPSRDRSTLLSFRGANSHPVREQLQRLHQPPEIAAELIQQSYWGTLNYVDEAEGLSAEQQVYTDLIARSRFSVAPRGHDIFSYRLLEVMAGGAIPVILADDWVLPFSELLDWSEFSLSVAEDRCWELPQLLQAISTDQWQVMQQHLQQVYQHYFYSLARQVQTLWQILDQRSLHPSASEVEIEAVLLSQAERYRLKGDLEAAATYLATLPRSPARILEQARLALTQQQPKAALALLDSMVMPEAEQGEHYNLLGVAQTQLGEWDTAIAIYRQGLQAQPHHPKLRTNLCVALRQQEQWEEALALSQALLEEVPAAIDRLLLQADTLNLAGRYDQALSLYQQVVAREPERANAQLAIAEILLRQGKAEGWDIYEARFAAEPSLAALAAHYPQPRWQGVELGQRSLLVWGEQGYGDQIQFSRYLWVLRDRYPQARIQFQTDAVLVPLFAEPLASLGIKVIPAQITEELFDFQVPLLSLPRLVWPSLKDIPYREGWLPCPLPPPREDQNHKFRVGIVWLAGQRAGIQKSATADRRSCSLEAMLELVRESMQRSDLEVVSLQLGYEGRLPEGIQDWSNRLVDFSATARVLMELDLLVTVDTAIVHLAGAMGTPAKVLLAYPPDWRWQQNLELTWYSSIELCYFAHLLSSF”, the protein production result was “failed”.

As to “MAYNSNSNNNNNNIVVVFDFDKTIIDVDSDNWVIDELGFTDLFNQLLPTMPWNTLMDRMMKELHDQGKTIEEIKQVLRTIPIHPRVVPAIKSAHDLGCELRIVSDANMFFIETIVEHLGISELFSEINSNPGYVDERGTLKISPYHDFTKSPHSCSCGTCPPNMCKGLIIERIQQSLAKEGKKKMIYLGDGAGDYCPSLKLNTEDYVMPRKNFPVWDLISQNPMLIKAAIREWTDGQSMEMILIGTIEEIRLEEEKEKMLTSAENNCKMQTISIGINNVHHEPILPRALRVSQSS”, the protein production entry is “failed”.

For “MAYVSMGEAHRRITEYLNRFCDAVSYQDSSTLCRLLSFSSNSPPLLSLADALNVFQDSSSLIRQSDRFSEYGEILAHVFRSLQSYRVGNLVEAYLAFDKFANAFVQEFRNWESAWALEALYVVCYEIRVLAEKADKDLTSNGKSPEKLKAAGSLLMKVFGVLAGKGPKRVGALYVTCQLFKTYFKLGTVNLCRSVIRSIETARIFDFEEFPRRDKVTYMYYTGRLEVFNENFPAADTKLSYALQNCNPKRERNIRMILKYLVPVKLSLGIIPKDELLRNYNLHEYTKIVQALRKGDLRLLRHALQEHEDRFLRSGVYLVLEKLELQVYQRLMKKIYINQKLSDPARAHQLKLEGIAKALRWLDMDMDLDEVECIMTILIYKNLVKGYLAHKSKVVVLSKQDPFPKLNGKPVSS”, the protein production result was “failed”.

Take “MCEGRRAAFQAVDNCSSGNALTSKCGEKEAGVAGDAATSPKGLTWDPAQCFYSPACNAENITSKNRSPALLSRPHAQPGESERLITVLSNRDRKASPGAAGDSGLGGASPSGRGRDGTRGWGENWLPPPAAPQATSACSGAGSGAVGAARPCSSRELAVVGGGGDASGGCVGCRAGDRTAAPSSRCPEPTWSNCSEATAPAHTGEEAAVAAVAAAPAMLCYVTRPDAVLMEVEVEAKANGEDCLNQVCRRLGIIEVDYFGLQFTGSKGESLWLNLRNRISQQMDGLAPYRLKLRVKFFVEPHLILQEQTRHIFFLHIKESLLAGHLQCSPEQAVELSALLAQTKFGDYNQNTAQYSYEDLCEKELSSSTLNSIVGKHKELEGISQASAEYQVLQIVSAMENYGIEWHAVRDSEGQKLLIGVGPEGISICKEDFSPINRIAYPVVQMATQSGKNVYLTVTKESGNSIVLLFKMISTRAASGLYRAITETHAFYRCDTVTSAVMMQYSRDLKGHLASLFLNENINLGKKYVFDIKRTSKEVYDHARRALYNAGVVDLVSRNDQSPPSSPLKSSDSSMSCSSCEGLSCQQTRVLQEKLRKLKEAMLCMVCCEEEINSTFCPCGHTVCCESCAAQLQSCPVCRSRVEHVQHVYLPTHTSLLNLTVI”: the protein production result is “failed”.

In the case of “MCGSERFQFRSGAKPLIRGRPLDSDMESLHPRVRLLWVLSTVIQASVLGVIAYLVDRFAVSLPQTVVVGGWVVLVLLGVAHAIAAHRIWRFDLQDDALFLLRGVVTRTDTSVPYVRVQHVDTTRGPVERAIGLASVVVYTAGTRGADITIPGLRPERATELREQLRDLANESEATDAV”, the protein production entry was “failed”.

“MCHQLSKKTKKALDQELKRKTTLKNNLFSRYLLFRYSLALFFFVNLYWTFPLIYKPSVYVILPVSLLILIVLACAEQFKLYSLQEVYLRNTERVFKTQIVVQILLLIINIFPQQLSVAIPFFSNNMAAHVFLAVFQFLGLFICWYNLKRIKQIKNNEDKFYNRFYNHIEKYI”: the protein production entry is on record as “failed”.

As to “MCIGMDIRDFFAQSAGRWFSQRTSHHLAFKQTESGKSQLTIELLSVDDPAVIALCQQYDMDPAWAVCGARVSWDGTMEWDNEKHEGSTVLVPIMDQGSRMEGKLLREMGYAEKAPVAGRFSMGSDGALTLITEYETIYSEERLWFASPNLRLRTSILKRFGGFSMASFCSEIRLGVTQPANSLEHHHHHH”, the protein production result is recorded as “not failed”.

On to “MCLALPAQIDQVLEDNKAIVNLGGITKEISTVLLEQVSEGEYVIIHAGFALTKLDEREANKTLSLFAHMLKDG”, for which the protein production result is on record as “not failed”.

For “MCNETWQSRAEEYIDDSRRLGYALTTTSAYLLSFARFVDQRGHSGALTSDIILDWAQSTDSKKPTTWTKRLINIRRFISHCSRVDGKSEVPRVDVFGRPKGRPTPHIYTELEISELLAAARELPGTLPSATYETLFGLLASTGLRLSEALHLRCSDVDLRSGRLIVRQGKLGKSRLVPLHATVCEVLSRYLGVRQQLPLTSESYFFVSQTGGLLPRRTVEGVFIRLRTKLGWAPRGNWRAPRIHDLRHTFICRRVTQWHKEGADIDNAMLYVSTYVGHVAVTYTYWYLTGIPELMTVVGQRFEAFAESARGAENAE”, the protein production entry is given as “failed”.

For the sequence “MCPEFQRKAAGAPRMGAMLARCVLTAALALQAAAAARAVEIEIGVASRGVVDGLEFVQFSADERTMATTHWGNVVHLWDLKTLRVRSSVSVANRDFDFDLSPDGRALAVWNEEGKGEIELYDTDNGQPARALPAPRLPQGESRRGRSLVYRDDGTLEFVSHGWIGGHARKAYLLAVPAGQPRAAETPLPALVNSVAFRKSAVMDQGRLLLAGVDGADDELAIMDIASGRMLAREPGFRIASYAADARRAVFVEADGKQRILAFDFSSRSLSTLPRWTGSGKFQPYRFVAGTRFLVLAPDEPDASTRRAAPGIYDLQTRRLHRLPPDADPGSIDVWGATASYVLCNPDHTACQAEVADLAISRKLGTFAVQPSADFRTWISPSGSMVVVGGADDGTMMVWSVKEQRVIGPN”, the protein production entry is listed as “failed”.

Consider “MCQMPCQFSWPYTHYFTQTKNKEKILNKLIVFTGGPGAGKTSVIEQLKTQGFICAPETGRHVIQMQVANHGSALPWNDKQAFRDEMTKEEVSNYRSFNVRQGDVFFDRSIVDVYGYSKLEQLPISHELITHCQTLRYHSQVFIFPPWASIFSNDEERKQDFSEAVATYQQMVDAYHKFGYQLIEVPKMSVEDRVAFILGSVIELEHHHHHH”, for which the protein production entry is “not failed”.

In the case of “MCQSNQIVSHFLSHRNVTNELAEKISKDHYSYKPAETSMSAEELVKHILTSFHLFANVIKEGNASPFQNKQEETETDLNVLAKTYTEKTVAILEQLTEEQLDREIDLTSAFGRKVTGRALLQLAMEHEIHHKGNLFVYVREMGHTELPFYQQRM”, the protein production result is reported as “not failed”.

“MCRGPLGSYESLTRPSFAFIVISPSATLLTHAPGSQEPHVSRHNRRRSTLHKRATVFGGGTVAVAAVVATVNIASADQVSPTPRTASKADHAVFVQGNELAGNTIHVFRRGDDGKLTAAGKYATGGKGGDQVDAPTDSLASQGSLVYDRRSGRLLALNAGSGTLTSYAVHGQKLTDRQTVPTGGDFPVGIAVSGDLAYVMNAGGAGSVQGFRITTMGLKPLSGSLRTLGLKNEKVPLFSSSPGQAAFTPDGRNLVVTTKSANTVEVFPIGRDGRPAHKPVVNKSAGMVPFAIAFDKTGRMLVAEAAESTVSTYKVRRNGELQVLQKPLPNGQDTLCWLERAGDFFYGGNTGNSTVSGYRMDARGRLALTNEAGIAAAPSAKSQGVIDIAVAADKFVYVQNATSGTVDGFRVGRTGALTKVTTVTDLPAFAESGMEGIAAV”: the protein production entry is “failed”.

Regarding “MCSNNNTSSGSYGELQLHDESSGSCRKKQKKDKVRRRGPGVAELEKIRLQEEYKPPLSSSPSLPNIDHHHHTLFAPASSVYDLVMTSPNFSFPEKLASTLPVFPISPDATQNRSMGITPVQETGTTTSNPIAIDSPTSIPRHYPRFIPLGLQYEQQQQKLKDLDETMQWRSKKPFYSFIPSGDPSNDDQEQRPCDLFGSAADHGIDLNLKL”, the protein production entry was “failed”.

The values above are taken from a protein production outcome set (Wang et al. 2014).
